# T1: FoxO3a (NP-963853), substrate peptide from a peptide library, O43524
# T1 chain: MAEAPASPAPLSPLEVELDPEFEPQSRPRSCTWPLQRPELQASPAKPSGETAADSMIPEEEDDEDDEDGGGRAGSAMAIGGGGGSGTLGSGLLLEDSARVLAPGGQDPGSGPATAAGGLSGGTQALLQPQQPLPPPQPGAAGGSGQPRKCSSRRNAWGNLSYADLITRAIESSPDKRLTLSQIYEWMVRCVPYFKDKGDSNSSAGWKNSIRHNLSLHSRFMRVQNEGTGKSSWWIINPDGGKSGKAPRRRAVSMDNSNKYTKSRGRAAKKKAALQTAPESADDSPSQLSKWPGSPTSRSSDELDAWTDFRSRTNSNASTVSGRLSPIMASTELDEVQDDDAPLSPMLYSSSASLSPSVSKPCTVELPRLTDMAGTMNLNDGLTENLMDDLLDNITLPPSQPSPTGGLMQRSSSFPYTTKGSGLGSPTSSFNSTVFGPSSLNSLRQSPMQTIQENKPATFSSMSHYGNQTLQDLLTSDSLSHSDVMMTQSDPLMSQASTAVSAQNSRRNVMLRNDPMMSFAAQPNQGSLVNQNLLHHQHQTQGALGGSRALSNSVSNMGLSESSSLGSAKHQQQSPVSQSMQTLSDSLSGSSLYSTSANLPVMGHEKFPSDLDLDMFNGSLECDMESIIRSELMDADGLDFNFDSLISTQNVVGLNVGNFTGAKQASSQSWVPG
# T2: RBL2 (NM-005611), substrate peptide from a peptide library, Q08999
# T2 chain: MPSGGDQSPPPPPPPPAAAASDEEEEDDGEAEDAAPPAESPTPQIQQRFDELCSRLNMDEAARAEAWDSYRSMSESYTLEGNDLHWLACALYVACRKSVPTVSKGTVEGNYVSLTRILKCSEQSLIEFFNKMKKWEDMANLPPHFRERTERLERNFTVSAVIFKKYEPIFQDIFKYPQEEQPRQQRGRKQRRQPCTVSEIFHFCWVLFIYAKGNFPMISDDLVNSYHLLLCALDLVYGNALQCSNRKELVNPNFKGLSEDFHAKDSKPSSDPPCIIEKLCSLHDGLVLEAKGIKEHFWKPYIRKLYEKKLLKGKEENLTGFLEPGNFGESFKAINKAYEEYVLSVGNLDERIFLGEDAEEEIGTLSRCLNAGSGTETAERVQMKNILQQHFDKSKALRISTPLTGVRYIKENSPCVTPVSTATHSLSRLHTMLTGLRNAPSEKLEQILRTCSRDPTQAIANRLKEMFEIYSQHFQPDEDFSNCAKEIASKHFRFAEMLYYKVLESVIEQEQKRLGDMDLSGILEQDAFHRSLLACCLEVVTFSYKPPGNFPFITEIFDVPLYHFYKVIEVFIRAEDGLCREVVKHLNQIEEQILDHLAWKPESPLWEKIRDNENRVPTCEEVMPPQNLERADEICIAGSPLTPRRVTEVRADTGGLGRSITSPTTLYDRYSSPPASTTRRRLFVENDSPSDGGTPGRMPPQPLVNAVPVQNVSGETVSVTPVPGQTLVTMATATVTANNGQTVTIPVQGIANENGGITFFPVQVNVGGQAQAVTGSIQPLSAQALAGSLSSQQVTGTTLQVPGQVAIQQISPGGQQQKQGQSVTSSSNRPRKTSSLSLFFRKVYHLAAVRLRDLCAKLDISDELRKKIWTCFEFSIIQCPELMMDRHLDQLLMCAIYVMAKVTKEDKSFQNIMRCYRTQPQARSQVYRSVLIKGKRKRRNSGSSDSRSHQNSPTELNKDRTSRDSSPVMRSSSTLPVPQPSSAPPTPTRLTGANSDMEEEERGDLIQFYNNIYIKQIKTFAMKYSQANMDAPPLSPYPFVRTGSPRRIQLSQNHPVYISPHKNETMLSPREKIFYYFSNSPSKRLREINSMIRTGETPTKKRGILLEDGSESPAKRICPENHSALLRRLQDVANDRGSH
# B1: human Hip kinase 4 (HipK4), recombinant, expressed in Sf9 insect cells (protein)
# chain: MSTIQSETDCYDIIEVLGKGTFGEVAKGWRRSTGEMVAIKILKNDAYRNRIIKNELKLLHCMRGLDPEEAHVIRFLEFFHDALKFYLVFELLEQNLFEFQKENNFAPLPARHIRTVTLQVLTALARLKELAIIHADLKPENIMLVDQTRCPFRVKVIDFGSASIFSEVRYVKEPYIQSRFYRAPEILLGLPFCEKVDVWSLGCVMAELHLGWPLYPGNNEYDQVRYICETQGLPKPHLLHAACKAHHFFKRNPHPDAANPWQLKSSADYLAETKVRPLERRKYMLKSLDQIETVNGGSVASRLTFPDREALAEHADLKSMVELIKRMLTWESHERISPSAALRHPFVSMQQLRSAHETTHYYQLSLRSYRLSLQVEGKPPTPVVAAEDGTPYYCLAEEKEAAGMGSVAGSSPFFREEKAPGMQRAIDQLDDLSLQEAGHGLWGETCTNAVSDMMVPLKAAITGHHVPDSGPEPILAFYSSRLAGRHKARKPPAGSKSDSNFSNLIRLSQVSPEDDRPCRGSSWEEGEHLGASAEPLAILQRDEDGPNIDNMTMEAERPDPELFDPSSCPGEWLSEPDCTLESVRGPRAQGLPPRRSHQHGPPRGATSFLQHVTGHH
# Tests used:
# [1] = target: T1, FoxO3a (NP-963853), substrate peptide …
# [2] = target: T2, RBL2 (NM-005611), substrate peptide …
protein,measurement,setting,value
B1,"phosphorylation of library peptides (HTS kinase assay, streptavidin-SPA beads)",[1],"The proteins identified as HipK4 substrates with the aid of such an experimental approach are the following, inter alia; FoxO3a (NP-963853) and RBL2 (NM-005611)"
same,"phosphorylation of library peptides (HTS kinase assay, streptavidin-SPA beads)",[2],"The proteins identified as HipK4 substrates with the aid of such an experimental approach are the following, inter alia; FoxO3a (NP-963853) and RBL2 (NM-005611)"

# Source: patent US20090238836
